Molecular target: T1, SrbA161-267 (bHLHZ DNA-binding domain) (Aspergillus fumigatus, UniProt Q4WIN1 161-267)
T1 sequence: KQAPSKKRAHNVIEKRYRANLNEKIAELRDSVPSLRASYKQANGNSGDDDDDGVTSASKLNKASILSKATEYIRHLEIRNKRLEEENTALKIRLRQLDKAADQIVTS
Experiment: SPR; SPR kinetics on immobilized biotinylated DNA duplexes; buffer, salt, pH and temperature not given in the material (details in Additional file 2)
Details: protein: recombinant; chain copies: 2; label: 5' biotin on strand 1; blunt

Binder | Kd [nM]
hapXpmm12 (hapX -1340 to -1331) (dsDNA) DNA 1: CAGATAAGATCAGATGATGAAGGGAT DNA 2: ATCCCTTCATCATCTGATCTTATCTG | 4.64 ± 0.03
hemApmm11 (hemA -527 to -518) (dsDNA) DNA 1: TCCCCAGTATCGGATCATACGGCTAC DNA 2: GTAGCCGTATGATCCGATACTGGGGA | 4.18 ± 0.41
hapXpmm11 (hapX -774 to -783) (dsDNA) DNA 1: GCCTTTGAATGGGAGGATTCTTTATT DNA 2: AATAAAGAATCCTCCCATTCAAAGGC | 282 ± 5.1
hemApmm12 (hemA -338 to -347) (dsDNA) DNA 1: CTGAGGCAATGAGGCGATGAGGCAAC DNA 2: GTTGCCTCATCGCCTCATTGCCTCAG | 35.7 ± 0.52
srbApmm0 (srbA -735 to -726) (dsDNA) DNA 1: TTCCCGCGATCATACGATGTGCTCCG DNA 2: CGGAGCACATCGTATGATCGCGGGAA | 0.63 ± 0.04
srbApmm0mut (srbA* mutated site) (dsDNA) DNA 1: TTCCCGCGATATAACATAGTGCTCCG DNA 2: CGGAGCACTATGTTATATCGCGGGAA | 386 ± 7.3

— PMC3305660, “Regulatory interactions for iron homeostasis in Aspergillus fumigatus inferred by a Systems Biology approach”
